Literature values as cited in publication PMC4666935.

Tests used:
[1] = target: PAI-1 (Homo sapiens) (UniProt P05121)
[2] = target: uPA-PAI-1 complex (Homo sapiens) (UniProt P00749)
uPA-PAI-1 complex (Homo sapiens), sequence (P05121 24-402, chain 2 of 2, other chains not shown): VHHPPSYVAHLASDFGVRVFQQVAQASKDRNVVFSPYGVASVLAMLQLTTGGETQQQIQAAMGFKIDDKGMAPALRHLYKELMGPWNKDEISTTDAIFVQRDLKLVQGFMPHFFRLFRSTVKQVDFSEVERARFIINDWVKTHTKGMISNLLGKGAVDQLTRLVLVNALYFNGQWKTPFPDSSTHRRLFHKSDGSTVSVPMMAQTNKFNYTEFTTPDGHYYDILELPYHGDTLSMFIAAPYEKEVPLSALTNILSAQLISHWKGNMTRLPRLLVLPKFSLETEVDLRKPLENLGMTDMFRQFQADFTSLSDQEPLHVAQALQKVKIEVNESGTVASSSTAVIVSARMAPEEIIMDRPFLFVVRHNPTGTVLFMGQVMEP

vasoinhibin, sequence (P01236 29-227): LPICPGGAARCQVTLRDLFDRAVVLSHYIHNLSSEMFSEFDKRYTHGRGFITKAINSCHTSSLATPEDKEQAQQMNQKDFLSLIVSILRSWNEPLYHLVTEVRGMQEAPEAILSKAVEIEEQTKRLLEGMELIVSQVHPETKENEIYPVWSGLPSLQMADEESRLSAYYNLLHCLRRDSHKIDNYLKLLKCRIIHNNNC
PAI-1 (Homo sapiens), sequence (P05121 24-402): as the sequence (P05121 24-402, chain 2 of 2, other chains not shown) above

vasoinhibin (from UniProt P01236)
Kd [1]: 1 µM | Kd [2]: 0.5 µM
